Measured values from the supplement of paper PMC5998384.

Experiments:
HeLa Kyoto [1] = test: melting temperature (median over replicates), in situ; higher = more thermally stable
HeLa Kyoto [2] = test: solubility in G1/S (NP-40 vs SDS abundance) (log2 ratio); higher = more soluble; conditions: cell cycle stage: G1/S
HeLa Kyoto [3] = test: thermal stability score vs G1/S (z-score of summed log2 fold changes over temperatures); higher = more thermally stable than in G1/S
HeLa Kyoto [4] = test: solubility change mitosis vs G1/S (difference of NP-40 vs SDS log2 ratios) (log2 ratio difference); higher = more soluble in mitosis
[5] = cell cycle stage: early G1 (4.5 h after nocodazole release)
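Throughout, for melting temperature (median over replicates), in situ: HeLa Kyoto cells synchronized by double thymidine or nocodazole block, proteins quantified by TMT10plex mass spectrometry, three independent biological replicates.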
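Throughout, for solubility change mitosis vs G1/S (difference of NP-40 vs SDS log2 ratios): synchronized HeLa Kyoto cells (double thymidine block for G1/S, nocodazole release for mitosis), protein amounts in NP-40 versus SDS lysates quantified by mass spectrometry, three biological replicates.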
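Throughout, for solubility in G1/S (NP-40 vs SDS abundance): HeLa Kyoto cells arrested at G1/S by double thymidine block, proteins quantified by TMT10plex mass spectrometry in mild NP-40 versus SDS extracts, three biological replicates.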
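Throughout, for thermal stability score vs G1/S (z-score of summed log2 fold changes over temperatures): synchronized HeLa Kyoto cells, proteins quantified by TMT10plex mass spectrometry, three biological replicates, mitosis taken 0.5 h after nocodazole release, G1/S directly after double thymidine block.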

Sequence | melting temperature (HeLa Kyoto [1]; cell cycle stage: G1/S) [°C] | melting temperature (HeLa Kyoto [1]; cell cycle stage: mitosis) [°C] | solubility in G1/S (log2) (HeLa Kyoto [2]) | thermal stability score (HeLa Kyoto [3]; [5]) | thermal stability score (HeLa Kyoto [3]; cell cycle stage: mitosis) | solubility change mitosis (log2) (HeLa Kyoto [4])
MAAQKINEGLEHLAKAEKYLKTGFLKWKPDYDSAASEYGKAAVAFKNAKQFEQAKDACLREAVAHENNRALFHAAKAYEQAGMMLKEMQKLPEAVQLIEKASMMYLENGTPDTAAMALERAGKLIENVDPEKAVQLYQQTANVFENEERLRQAVELLGKASRLLVRGRRFDEAALSIQKEKNIYKEIENYPTCYKKTIAQVLVHLHRNDYVAAERCVRESYSIPGFNGSEDCAALEQLLEGYDQQDQDQVSDVCNSPLFKYMDNDYAKLGLSLVVPGGGIKKKSPATPQAKPDGVTATAADEEEDEYSGGLC [NAPG] | 49.6 | 49.9 | 0.528 | -0.512 | 0.117 | 0.178
MAARLVSRCGAVRAAPHSGPLVSWRRWSGASTDTVYDVVVSGGGLVGAAMACALGYDIHFHDKKILLLEAGPKKVLEKLSETYSNRVSSISPGSATLLSSFGAWDHICNMRYRAFRRMQVWDACSEALIMFDKDNLDDMGYIVENDVIMHALTKQLEAVSDRVTVLYRSKAIRYTWPCPFPMADSSPWVHITLGDGSTFQTKLLIGADGHNSGVRQAVGIQNVSWNYDQSAVVATLHLSEATENNVAWQRFLPSGPIALLPLSDTLSSLVWSTSHEHAAELVSMDEEKFVDAVNSAFWSDADHTDFIDTAGAMLQYAVSLLKPTKVSARQLPPSVARVDAKSRVLFPLGLGHAAEYVRPRVALIGDAAHRVHPLAGQGVNMGFGDISSLAHHLSTAAFNGKDLGSVSHLTGYETERQRHNTALLAATDLLKRLYSTSASPLVLLRTWGLQATNAVSPLKEQIMAFASK [COQ6] | 54.8 | 55.1 | -0.0254 | 1.7 | 2.05 | -0.0137
MAARQAVGSGAQETCGLDRILEALKLLLSPGGSGSSSLQVTKHDVLLATLKSNLSALEDKFLKDPQWKNLKLLRDEIADKAEWPQNSVDVTWSFTSQTLLLLLCLKETMIRLAANFNPGKPNPRTPEVAPALSPDALSISQQKTVQFVLQFVVTLGICPYLMPGVGVPLRYRTEFGAVVQDVVCFDAAPDATRRLYTSCKALLNVAQHTSLGSLIFCHHFGDIAAGLCQLGFCPTKRKLLTPAEEVLTEEERTLSRGALRDMLDQVYQPLAVRELLILQGGPPQSCTDVKTQMRCRAPAWLRRLCGQLLSERLMRPNGVQAVVRGILEGAGAGAAGGSDAEVTAADWKKCDLIAKILASCPQQSLSPENYYRDICPQVLDLFHFQDKLTARQFQRVATTTFITLSRERPHLAAKYLLQPVLAPLHRCLNTAELSESDMVPGTILVTEEELSRCIEDVFKVYVVGNEPLTVLMDSLLPVLGVLFLLYCFTKQSVSHIRSLCQEILLWILGKLERKKAIASLKGFAGLDKAVPSLHSLCQFRVATQGGIMITIKEAISDEDEDEALYQKVSSEQGRVEHLGDLLSHCQECGLAGDFFIFCLKELTHVASENETELKTEPFSSKSLLELEQHQTLLVEGQERKLLVLQLMAVLCERMSEQIFTNVTQVVDFVAATLQRACASLAHQAESTVESQTLSMSMGLVAVMLGGAVQLKSSDFAVLKQLLPLLEKVSNTYPDPVIQELAVDLRITISTHGAFATEAVSMAAQSTLNRKDLEGKIEEQQQTSHERPTDVAHSHLEQQQSHETAPQTGLQSNAPIIPQGVNEPSTTTSQKSGSVTTEQLQEVLLSAYDPQIPTRAAALRTLSHWIEQREAKALEMQEKLLKIFLENLEHEDTFVYLSAIQGVALLSDVYPEKILPDLLAQYDSSKDKHTPETRMKVGEVLMRIVRALGDMVSKYREPLIHTFLRGVRDPDGAHRASSLANLGELCQRLDFLLGSVVHEVTACLIAVAKTDGEVQVRRAAIHVVVLLLRGLSQKATEVLSAVLKDLYHLLKHVVCLEPDDVAKLHAQLALEELDDIMKNFLFPPQKLEKKIMVLP [TANGO6] | 50.6 | 50.3 | -0.171 | 0.0292 | 0.767 | -0.193
MAARRALHFVFKVGNRFQTARFYRDVLGMKVESCSVARLECSGAISAHCSDYTRITEDSFSKPYDGKWSKTMVGFGPEDDHFVAELTYNYGVGDYKLGNDFMGITLASSQAVSNARKLEWPLTEVAEGVFETEAPGGYKFYLQNRSLPQSDPVLKVTLAVSDLQKSLNYWCNLLGMKIYEKDEEKQRALLGYADNQCKLELQGVKGGVDHAAAFGRIAFSCPQKELPDLEDLMKRENQKILTPLVSLDTPGKATVQVVILADPDGHEICFVGDEAFRELSKMDPEGSKLLDDAMAADKSDEWFAKHNKPKASG [GLOD4] | 50.8 | 50.9 | 0.42 | 0.704 | 0.532 | -0.012
MAARWRFWCVSVTMVVALLIVCDVPSASAQRKKEMVLSEKVSQLMEWTNKRPVIRMNGDKFRRLVKAPPRNYSVIVMFTALQLHRQCVVCKQADEEFQILANSWRYSSAFTNRIFFAMVDFDEGSDVFQMLNMNSAPTFINFPAKGKPKRGDTYELQVRGFSAEQIARWIADRTDVNIRVIRPPNYAGPLMLGLLLAVIGGLVYLRRSNMEFLFNKTGWAFAALCFVLAMTSGQMWNHIRGPPYAHKNPHTGHVNYIHGSSQAQFVAETHIVLLFNGGVTLGMVLLCEAATSDMDIGKRKIMCVAGIGLVVLFFSWMLSIFRSKYHGYPYSFLMS [MAGT1] | 53.9 | 53.3 | -0.189 | 2.09 | 2.05 | -0.0398
MAASKPVEAAVVAAAVPSSGSGVGGGGTAGPGTGGLPRWQLALAVGAPLLLGAGAIYLWSRQQRRREARGRGDASGLKRNSERKTPEGRASPAPGSGHPEGPGAHLDMNSLDRAQAAKNKGNKYFKAGKYEQAIQCYTEAISLCPTEKNVDLSTFYQNRAAAFEQLQKWKEVAQDCTKAVELNPKYVKALFRRAKAHEKLDNKKECLEDVTAVCILEGFQNQQSMLLADKVLKLLGKEKAKEKYKNREPLMPSPQFIKSYFSSFTDDIISQPMLKGEKSDEDKDKEGEALEVKENSGYLKAKQYMEEENYDKIISECSKEIDAEGKYMAEALLLRATFYLLIGNANAAKPDLDKVISLKEANVKLRANALIKRGSMYMQQQQPLLSTQDFNMAADIDPQNADVYHHRGQLKILLDQVEEAVADFDECIRLRPESALAQAQKCFALYRQAYTGNNSSQIQAAMKGFEEVIKKFPRCAEGYALYAQALTDQQQFGKADEMYDKCIDLEPDNATTYVHKGLLQLQWKQDLDRGLELISKAIEIDNKCDFAYETMGTIEVQRGNMEKAIDMFNKAINLAKSEMEMAHLYSLCDAAHAQTEVAKKYGLKPPTL [TOMM70A] | 50.4 | 50.1 | 0.504 | 2.06 | 2.92 | 0.0273
